From US20050148532A1

Biological target: histidine tagged p85 with serine 83 mutated to alanine (p85^S83A) (UniProt P27986)
Assay: cell-based or functional assay

HA-14-3-3 zeta (hemagglutinin-tagged 14-3-3 zeta), sequence (P63103 whole entry): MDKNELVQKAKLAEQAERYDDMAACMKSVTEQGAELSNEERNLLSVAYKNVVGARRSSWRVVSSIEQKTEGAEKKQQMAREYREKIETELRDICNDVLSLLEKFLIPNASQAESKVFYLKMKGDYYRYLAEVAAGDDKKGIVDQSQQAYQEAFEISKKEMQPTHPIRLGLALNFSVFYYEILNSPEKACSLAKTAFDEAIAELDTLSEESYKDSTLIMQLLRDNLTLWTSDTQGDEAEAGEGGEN

- decrease in activation of PI3K (production of PIP3 in PY20 immunoprecipitates): 35%
Substance: HA-14-3-3 zeta (hemagglutinin-tagged 14-3-3 zeta) (from UniProt P63103 1-245)
